According to paper PMC10656236 (The Journal of Biological Chemistry, 2023):

Biological target: cohesin-NIPBL^c subcomplex containing SMC1, SMC3, RAD21 and NIPBL^c (no SA1) (human, UniProt Q14683;Q9UQE7;O60216;Q6KC79)
Assay: reconstitution by mixing, AFM imaging in air

cohesin-NIPBL^c subcomplex containing SMC1, SMC3, RAD21 and NIPBL^c (no SA1), sequence (Q14683 whole entry, chain 1 of 4): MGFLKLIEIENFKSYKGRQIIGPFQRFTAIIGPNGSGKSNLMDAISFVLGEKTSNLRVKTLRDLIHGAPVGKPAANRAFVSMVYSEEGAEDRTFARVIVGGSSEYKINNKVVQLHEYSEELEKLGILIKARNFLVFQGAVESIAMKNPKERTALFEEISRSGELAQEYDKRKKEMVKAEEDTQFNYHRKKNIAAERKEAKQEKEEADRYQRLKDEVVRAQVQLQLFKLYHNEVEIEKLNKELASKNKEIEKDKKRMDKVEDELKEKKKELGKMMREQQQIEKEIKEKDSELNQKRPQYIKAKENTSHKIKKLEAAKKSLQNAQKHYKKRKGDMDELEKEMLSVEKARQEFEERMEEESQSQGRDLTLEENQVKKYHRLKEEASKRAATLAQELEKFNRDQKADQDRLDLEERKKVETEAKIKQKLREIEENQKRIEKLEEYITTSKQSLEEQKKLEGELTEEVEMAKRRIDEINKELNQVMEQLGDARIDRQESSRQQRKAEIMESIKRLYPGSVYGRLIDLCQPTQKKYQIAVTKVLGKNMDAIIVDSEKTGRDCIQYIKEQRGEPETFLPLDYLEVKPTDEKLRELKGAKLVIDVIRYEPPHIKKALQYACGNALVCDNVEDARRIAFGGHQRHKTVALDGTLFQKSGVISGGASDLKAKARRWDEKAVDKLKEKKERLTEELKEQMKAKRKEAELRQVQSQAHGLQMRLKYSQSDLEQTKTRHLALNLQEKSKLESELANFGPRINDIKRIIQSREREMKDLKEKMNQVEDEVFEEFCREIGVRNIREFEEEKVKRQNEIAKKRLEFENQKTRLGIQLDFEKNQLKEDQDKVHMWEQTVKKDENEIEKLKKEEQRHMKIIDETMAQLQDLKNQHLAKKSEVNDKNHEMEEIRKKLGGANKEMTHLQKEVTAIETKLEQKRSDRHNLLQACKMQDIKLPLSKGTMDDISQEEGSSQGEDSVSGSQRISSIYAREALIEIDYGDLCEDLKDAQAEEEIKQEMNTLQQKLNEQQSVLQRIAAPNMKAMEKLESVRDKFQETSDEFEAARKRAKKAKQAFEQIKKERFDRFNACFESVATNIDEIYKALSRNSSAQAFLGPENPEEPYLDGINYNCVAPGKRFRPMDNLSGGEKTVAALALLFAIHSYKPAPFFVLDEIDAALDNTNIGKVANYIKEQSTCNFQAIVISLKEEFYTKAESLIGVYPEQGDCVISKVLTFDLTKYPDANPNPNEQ
cohesin-NIPBL^c subcomplex containing SMC1, SMC3, RAD21 and NIPBL^c (no SA1), sequence (Q9UQE7 whole entry, chain 2 of 4): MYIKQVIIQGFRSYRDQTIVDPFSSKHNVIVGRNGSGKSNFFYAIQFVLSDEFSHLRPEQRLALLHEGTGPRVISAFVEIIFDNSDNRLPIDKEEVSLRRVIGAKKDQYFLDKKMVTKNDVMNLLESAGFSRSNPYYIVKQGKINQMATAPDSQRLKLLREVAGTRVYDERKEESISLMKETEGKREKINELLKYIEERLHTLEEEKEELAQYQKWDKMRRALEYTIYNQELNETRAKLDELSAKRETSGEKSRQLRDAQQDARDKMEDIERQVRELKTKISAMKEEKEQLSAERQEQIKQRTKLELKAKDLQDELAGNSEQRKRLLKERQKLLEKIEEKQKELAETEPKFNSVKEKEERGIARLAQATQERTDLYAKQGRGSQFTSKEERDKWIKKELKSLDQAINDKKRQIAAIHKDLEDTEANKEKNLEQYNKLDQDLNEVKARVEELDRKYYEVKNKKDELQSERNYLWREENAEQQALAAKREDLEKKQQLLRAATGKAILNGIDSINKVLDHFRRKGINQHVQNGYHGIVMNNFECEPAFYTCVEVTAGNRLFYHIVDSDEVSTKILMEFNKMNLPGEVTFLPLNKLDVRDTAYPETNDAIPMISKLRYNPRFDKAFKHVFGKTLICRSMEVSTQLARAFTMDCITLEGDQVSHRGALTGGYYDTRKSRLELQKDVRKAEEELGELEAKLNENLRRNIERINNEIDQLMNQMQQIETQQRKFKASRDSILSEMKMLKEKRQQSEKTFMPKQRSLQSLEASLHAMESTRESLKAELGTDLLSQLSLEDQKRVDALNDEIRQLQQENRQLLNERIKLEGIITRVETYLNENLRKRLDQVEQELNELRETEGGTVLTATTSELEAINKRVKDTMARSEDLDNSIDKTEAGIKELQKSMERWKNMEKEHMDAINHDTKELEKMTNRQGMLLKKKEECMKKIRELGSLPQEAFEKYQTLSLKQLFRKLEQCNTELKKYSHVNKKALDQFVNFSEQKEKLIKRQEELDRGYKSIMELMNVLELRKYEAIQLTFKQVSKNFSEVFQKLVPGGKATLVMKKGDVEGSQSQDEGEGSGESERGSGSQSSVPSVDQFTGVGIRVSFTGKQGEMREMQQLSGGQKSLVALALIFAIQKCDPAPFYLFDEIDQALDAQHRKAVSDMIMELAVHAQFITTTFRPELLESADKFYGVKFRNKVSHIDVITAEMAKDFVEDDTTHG
cohesin-NIPBL^c subcomplex containing SMC1, SMC3, RAD21 and NIPBL^c (no SA1), sequence (O60216 whole entry, chain 3 of 4): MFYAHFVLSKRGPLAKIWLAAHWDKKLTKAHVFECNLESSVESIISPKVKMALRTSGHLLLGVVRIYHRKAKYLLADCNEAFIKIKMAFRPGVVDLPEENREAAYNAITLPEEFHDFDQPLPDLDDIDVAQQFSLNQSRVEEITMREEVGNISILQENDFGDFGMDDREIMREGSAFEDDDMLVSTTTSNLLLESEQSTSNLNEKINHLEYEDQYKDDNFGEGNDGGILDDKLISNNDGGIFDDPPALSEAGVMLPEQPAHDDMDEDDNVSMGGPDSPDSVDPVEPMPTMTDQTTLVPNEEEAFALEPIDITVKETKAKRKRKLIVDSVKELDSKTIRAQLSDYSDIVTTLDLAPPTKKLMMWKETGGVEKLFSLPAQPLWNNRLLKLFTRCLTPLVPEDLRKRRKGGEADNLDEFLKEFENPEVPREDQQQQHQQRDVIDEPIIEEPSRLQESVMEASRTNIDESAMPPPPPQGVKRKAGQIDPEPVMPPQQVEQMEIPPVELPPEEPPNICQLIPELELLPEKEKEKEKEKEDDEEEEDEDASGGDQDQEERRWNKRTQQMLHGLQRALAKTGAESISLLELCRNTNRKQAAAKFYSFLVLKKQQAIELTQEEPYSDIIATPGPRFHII
cohesin-NIPBL^c subcomplex containing SMC1, SMC3, RAD21 and NIPBL^c (no SA1), sequence (Q6KC79 1163-2804, chain 4 of 4): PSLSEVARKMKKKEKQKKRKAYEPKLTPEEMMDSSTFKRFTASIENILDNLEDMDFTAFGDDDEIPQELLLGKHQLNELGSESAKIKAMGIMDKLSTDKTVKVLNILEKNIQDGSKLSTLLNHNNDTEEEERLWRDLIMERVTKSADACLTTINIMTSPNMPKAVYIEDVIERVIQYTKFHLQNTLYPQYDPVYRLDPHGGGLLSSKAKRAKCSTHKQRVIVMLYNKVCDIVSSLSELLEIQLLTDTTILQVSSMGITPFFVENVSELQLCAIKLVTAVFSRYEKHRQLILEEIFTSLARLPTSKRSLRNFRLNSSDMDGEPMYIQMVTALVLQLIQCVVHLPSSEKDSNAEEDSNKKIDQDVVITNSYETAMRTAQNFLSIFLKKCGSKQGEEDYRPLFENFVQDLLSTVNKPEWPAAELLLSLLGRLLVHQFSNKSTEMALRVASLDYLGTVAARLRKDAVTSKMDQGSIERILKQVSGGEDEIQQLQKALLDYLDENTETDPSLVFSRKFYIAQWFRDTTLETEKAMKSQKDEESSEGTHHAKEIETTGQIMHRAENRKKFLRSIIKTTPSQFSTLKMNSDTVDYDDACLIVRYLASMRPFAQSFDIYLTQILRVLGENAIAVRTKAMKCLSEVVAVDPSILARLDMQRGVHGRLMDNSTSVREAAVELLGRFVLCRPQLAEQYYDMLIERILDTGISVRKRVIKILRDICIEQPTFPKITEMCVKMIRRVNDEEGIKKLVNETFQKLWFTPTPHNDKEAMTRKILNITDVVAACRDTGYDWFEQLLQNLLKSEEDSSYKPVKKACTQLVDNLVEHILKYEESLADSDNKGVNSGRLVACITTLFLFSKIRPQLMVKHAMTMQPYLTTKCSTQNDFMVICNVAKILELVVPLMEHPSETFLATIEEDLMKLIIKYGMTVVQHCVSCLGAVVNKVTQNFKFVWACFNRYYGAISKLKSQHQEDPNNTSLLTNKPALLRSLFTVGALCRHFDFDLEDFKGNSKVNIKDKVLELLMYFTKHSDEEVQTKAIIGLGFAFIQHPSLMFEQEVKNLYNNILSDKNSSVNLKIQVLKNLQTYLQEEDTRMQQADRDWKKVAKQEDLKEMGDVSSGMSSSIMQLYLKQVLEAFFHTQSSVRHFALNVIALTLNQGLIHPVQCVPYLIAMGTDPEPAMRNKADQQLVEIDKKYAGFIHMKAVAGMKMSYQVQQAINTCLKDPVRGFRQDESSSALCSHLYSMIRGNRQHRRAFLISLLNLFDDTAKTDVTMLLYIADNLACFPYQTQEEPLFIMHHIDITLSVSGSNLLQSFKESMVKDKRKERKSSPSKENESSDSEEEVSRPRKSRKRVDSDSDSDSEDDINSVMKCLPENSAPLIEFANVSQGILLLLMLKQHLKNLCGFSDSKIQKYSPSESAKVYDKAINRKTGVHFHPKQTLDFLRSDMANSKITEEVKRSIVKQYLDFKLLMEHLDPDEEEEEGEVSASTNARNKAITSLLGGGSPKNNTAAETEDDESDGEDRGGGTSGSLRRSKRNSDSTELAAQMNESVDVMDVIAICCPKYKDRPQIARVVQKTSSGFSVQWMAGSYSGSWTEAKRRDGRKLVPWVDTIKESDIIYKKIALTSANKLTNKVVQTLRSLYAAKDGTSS

binding result: binds
B1: SA1dc (SA1 1-1054 AAs, without its C terminus) (domain or fragment)
chain: MITSELPVLQDSTNETTAHSDAGSELEETEVKGKRKRGRPGRPPSTNKKPRKSPGEKSRIEAGIRGAGRGRANGHPQQNGEGEPVTLFEVVKLGKSAMQSVVDDWIESYKQDRDIALLDLINFFIQCSGCRGTVRIEMFRNMQNAEIIRKMTEEFDEDSGDYPLTMPGPQWKKFRSNFCEFIGVLIRQCQYSIIYDEYMMDTVISLLTGLSDSQVRAFRHTSTLAAMKLMTALVNVALNLSIHQDNTQRQYEAERNKMIGKRANERLELLLQKRKELQENQDEIENMMNSIFKGIFVHRYRDAIAEIRAICIEEIGVWMKMYSDAFLNDSYLKYVGWTLHDRQGEVRLKCLKALQSLYTNRELFPKLELFTNRFKDRIVSMTLDKEYDVAVEAIRLVTLILHGSEEALSNEDCENVYHLVYSAHRPVAVAAGEFLHKKLFSRHDPQAEEALAKRRGRNSPNGNLIRMLVLFFLESELHEHAAYLVDSLWESSQELLKDWECMTELLLEEPVQGEEAMSDRQESALIELMVCTIRQAAEAHPPVGRGTGKRVLTAKERKTQIDDRNKLTEHFIITLPMLLSKYSADAEKVANLLQIPQYFDLEIYSTGRMEKHLDALLKQIKFVVEKHVESDVLEACSKTYSILCSEEYTIQNRVDIARSQLIDEFVDRFNHSVEDLLQEGEEADDDDIYNVLSTLKRLTSFHNAHDLTKWDLFGNCYRLLKTGIEHGAMPEQIVVQALQCSHYSILWQLVKITDGSPSKEDLLVLRKTVKSFLAVCQQCLSNVNTPVKEQAFMLLCDLLMIFSHQLMTGGREGLQPLVFNPDTGLQSELLSFVMDHVFIDQDEENQSMEGDEEDEANKIEALHKRRNLLAAFSKLIIYDIVDMHAAADIFKHYMKYYNDYGDIIKETLSKTRQIDKIQCAKTLILSLQQLFNELVQEQGPNLDRTSAHVSGIKELARRFALTFGLDQIKTREAVATLHKDGIEFAFKYQNQKGQEYPPPNLAFLEVLSEFSSKLLRQDKKTVHSYLEKFLTEQMMERREDVWLPLISYRNSLVT
